A short description of this data set: yeast display, Sf9 membrane polyspecificity reagent, FACS + sequencing; frameworks hold sequencing errors. A digest of the protocol:
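Nanobodies came from a synthetic yeast display library in Saccharomyces cerevisiae BJ5465, induced with galactose for 36–48 hours and stained for 1 hour at 4 °C with 10% biotinylated, detergent-solubilized Sf9 membrane reagent. Cells were enriched on streptavidin microbeads and then FACS-sorted, with low and high (top ~1%) gates set on anti-HA fluorescence for expression and streptavidin fluorescence for reagent binding. Each polyreactivity label reflects the gate a clone came from. Genes were amplified by colony PCR, sequenced by MiSeq 2 × 250 and filtered by CDR length.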
Turning to “QVQLVESGGGLVQAGGSLRLSCAASGSIFVGYAMGWYRQAPGKERELVAAISTRGGSTYYADSVKGRFTISRDNAKNTVYLQMNSLKPEDTAVYDCAADYLDSTYGYVYGWDDYWGQGTQVTVSS”, the “polyreactivity (PSR sort gate)” value is recorded as “low polyreactivity”. Turning to “QVQLVESGGGLVQAGGSLRLSCAASGRIFYWYARGWYRQAPGKERELVASISRRAGSTYYADSVKGRFTISRDNAKNTVYLQMHSLKPEDTAVYYCAAVGRFDRVFDYDYWGQGTQVTVSS”, the “polyreactivity (PSR sort gate)” value is on record as “high polyreactivity”.

As to “QVQLEESGGGLVQAGGSLRLSCAASGSIFVYYGMGWYRQAPGKERELVAAISSGGSTHYADSVKGRFTISRDNAKNTVYLQMNSLKPEDTAVYYCNARAYGNGLGTGYFGKHRYDYWGQGTQVTVSS”, the “polyreactivity (PSR sort gate)” value is “low polyreactivity”. Turning to “QVQLVESGGGLVQAGGSLRLSCADSGFTCYYYTMGWNRPAPWKGRELVAAISWSGGSTYYADSVKGRFTISRDNAKNTVYLQMNSLKPEDPAVYYCNKAYPGRTYDYWGQGSQVTVSS”, the “polyreactivity (PSR sort gate)” value is on record as “high polyreactivity”.

As for “QGQLVESGGGLGQAGGTLRLSCAASGFTFSFYAMGWYRQAPGKERELVAAISWSGGSTYYADSVKGRFTISRDNAKNTVYLQMNSLKPEDTAVYYCAAKLLYVGRYGYWGHGTQVTVSS”, the “polyreactivity (PSR sort gate)” value was “high polyreactivity”. The value for “HVQLVESGGGLVQAGGSLRLSCAASGLTFTRYTMGWSRQAPGKERELVAAITSSGGSTYYADSVKGRFTISRDNAKNTVYLQMNSLKPEDTAVYDCAARTGYGYGARRTLKSRYDYWGQGTQVTVSS” was “high polyreactivity”. For the sequence “QVQLVESGGGLVQAGGSLRLSCAASGFTFSTYAMGWYRQAPGKERELVAAISRSGGSTYYADSVKGRFTISRDNAKNTVYLQMNSLKPEDTAVYYCAADGLRRESSYYYWGQGTQVTVSS”, the “polyreactivity (PSR sort gate)” value is given as “high polyreactivity”.

Turning to “QVQLVESGGGLVQAGGSLRLSCAASGIIFSYYAMGWYRQEPGKERELVAAIDSGGSTYYADSVKGRFTISRDNAKNTVYLQMNSLKPEDTAVYYCNADTARGVPVFPHDYWGQGTQVTVSS”, the “polyreactivity (PSR sort gate)” value was “low polyreactivity”. As for “QVQLVESGGGLVQAGGSLRLSCAASGFIFESNAMGWYIQAPGKERELVATITNGDRTYYADSVNGRFTISRDNAKNTVYLQMNSLKPEDTAVYYCNADFRAREVFLFDSWGQGTQVTVSS”, the “polyreactivity (PSR sort gate)” value is on record as “low polyreactivity”. Turning to “QVQLVESGGGLVQAGGSLRLSCAASGSIIDLNAMGWYRQAPGKERDLVAAISSGGGTYYADSVKGRFTISRDNAKNNVYLQMNSLKPEDTAVYYCAAIGYRVYRYYRGRTYDYWGQGTQVTVSS”, the “polyreactivity (PSR sort gate)” value is listed as “high polyreactivity”.

With “QVQLVESGGGLVQAGGSLRLSCAASGGTSFYAMGWYRQAPGKDRELVAAITRSGGSTYYADSVKGRFTFSRDNAKNTVYLQMNSLKPEDTAVYYCAALSNHGYYIRMDYWGQGTQVTVSS”, the “polyreactivity (PSR sort gate)” value is recorded as “high polyreactivity”. To “QVQLVESGGGLVQAGGSLRLSCAASGRTFYRYAMGWYRQAPGKERELVAVISTDGSSTYYADSVKGRFTISRDNAKNTVYLLMNSLKPEDTAVYYCAARSLAWLFGRNYWGQGTQVTVSS” belongs “high polyreactivity”; to “QVQLLQTGGGLVQAGGSLRLSCAASGRIFVVNAMGWNRLAPGKEREMVADISSGVSTNYADSVKGRFTISRDNAKNTVYLQMNILKPEDTALYYCNSRFRFRYKFPSRNSWGQGTLVTVSS”, “high polyreactivity”. Turning to “QVQLVESGGGLVQAGGSLRLSSAASGITFATYAMGWYRQAPGKERELVAAISSSTGSTYYADSVKGRFTISRDNAKNTVYLQMNSLKPEDTAVYYCAAVRTQQYDYWGQGTQVTVSS”, the “polyreactivity (PSR sort gate)” value is given as “low polyreactivity”. Take “QVQLVESGGGLVQAGGSLRLSCAASGFTFHYYGMGWYRQAPGKERELVAAINWSGSSTYYADSVKGRFTISRDNATNTVYLQMNSLKPEDSAVYYCAAEKRKLFQGVARYRYEYWGQGTQVTVSS”: the “polyreactivity (PSR sort gate)” value is on record as “low polyreactivity”.

With “QVQLVESGGGLVQAGGSLRLSCAASGSTFSPNAMGWYRQAPGKERELVAAISGSGGSTYYADSVKGRFTISRDNAKNTVYLQMNSLKPEDTAVYYCAADSYYDGDYWGQGTQVTVSS”, the “polyreactivity (PSR sort gate)” value is on record as “low polyreactivity”. Take “QVQLVESGGGLVQAGGSLRLSCAASGSTFGYYAMGWDRQAPGKERELVAAISRRVGSTYYADSVKGRFTISRDNAKNTVSLQMNSLNPEDTAVYYWASTSVNPWRGDYDMYYWGQGTQVTVSS”: the “polyreactivity (PSR sort gate)” value was “high polyreactivity”. In the case of “QVQLVESGGGLVQAGGSLRLSCAASGRIFYTNAMGWYRQAPGKESELVAVISWGGDTTYYADSVKGRFTISRDNAKYTVYLQMNSLKPDDTADYYFNADWGPTYEIYDSWGQGTQVTVSS”, the “polyreactivity (PSR sort gate)” value is on record as “low polyreactivity”. Turning to “QVQLVESGGGLVQAGGSLRLSCAASGFTFRVNAMGWYRQAPGKESELVAAISSGGGITYYADSVKGRFTISRDNAKNTVYLQMNSLKPEDTAVYYCAARENRYLERDYWGQGTQVTVSS”, the “polyreactivity (PSR sort gate)” value is “low polyreactivity”. Consider “QVQLVESGGGLVQAGGSLRLSCAASGRTFKGNAMGWYRQAPGKERKLVAVITGSGGSTYYADSVKGRFTISRDNAKNTVYLQMNSLKPEDTAVYYCAAESEPIRIRERDYWGQGTHVTVSS”, for which the “polyreactivity (PSR sort gate)” value is given as “low polyreactivity”. Regarding “QVQLVESGGGLVQAGGSLRLSCAASGRTFAVYTMGWYRQAPGKERELVARIRYSGGNTYYADSVKGRFTISRENAKNTVYLQMNSLKPEDTAVYYCAARSRYRIYASRNFDYWGQGTQVTVSS”, the “polyreactivity (PSR sort gate)” value is reported as “high polyreactivity”. For “QVQLVESGGGLVQAGCSLRLSCAASGIIFRSYAMGWYRQAPGKERELVAAITRSGGSTYADSVKGRFTISRDNAKNTVYLQMNSLKPEDTAVYYCAADRYSGWDYRRDYWGHGTQVTVSS”, the “polyreactivity (PSR sort gate)” value is on record as “low polyreactivity”. The value for “QVQLVESGGGLVQAGGSLRLSCAASGSTFGKYAMGWYRQAPGKERELVATISWSGTSTYYADSVKGRFTISRDNAKNTVYLQMNSLKPEDTAVYYCAADSEGVGVKHIYDYWGQGTQVTVSS” was “low polyreactivity”; that for “QVQLVESGGGLVQAGGSLRLTCAASGSTFVWYAMGWSRQAPGKEREFVATISWSDGSTYYADSVKGRFTISRDNAKNTVYLQMNSLKPEDTAVYYCASDVDRFFTYKYDYWGQGTQVTVSS” was “low polyreactivity”.

For the sequence “QVQLVESGGGLVQAGGSLRLSCAASRSTFYRYTMGWYIQAPGKERELVADITGSGGRTYYADSVKGRFTISRDNAKNTVYLQMNSLIPEDTAVYYCNAAYVWYRARAGSEDYWGQGTQVTVSS”, the “polyreactivity (PSR sort gate)” value is “high polyreactivity”.

Consider “QVQLVESGGGLVQAGGSLRLSCAASGSIFRYYAMGWYIQAPGKEMELVAAITSSGGSTYYADSVKGRFTISRDNAKNTVYLQMNSLKPEDTAVYDCNARHVRYSRRENDYWGQGTQGTVSS”, for which the “polyreactivity (PSR sort gate)” value is reported as “high polyreactivity”. Take “QVQLVESGGGLVQAGGSLRLSCAASGRTFYTYTMGWYRQAPRKEREFVAAISSSGSSTYYADSVKGRFTISRDNAKNTVYLQMNSLKPEDTAVYYCAATSYSYPGYFRYDYWGQGTQVTVSS”: the “polyreactivity (PSR sort gate)” value is “high polyreactivity”.

Take “QVQLVESGGGLVQAVGRLRLSCAASGRILPLYAMGWYRQAPGKEREMVADITGSDGSTYYADSVKGRFSISRDNAKNTVYLQMNSLKPEDTAVYYCATDAIGRTPSDPWDYYYWGQGTQVTVSS”: the “polyreactivity (PSR sort gate)” value is “low polyreactivity”. “QVQLVESGVGLVQAVGSLRISCAACGSIFGRYGMGWYRQAPGKERELVAAITSGTRTNYADSVKGRFTISRDNAKNTVYLQMNSLKPEDTAVYYCNALRLRGIYEYGYWGLGTQVTVSS”: the “polyreactivity (PSR sort gate)” value is on record as “low polyreactivity”. The value for “QVQLVESGGGLVQAGGSLRLSCAASGLTFIFNTMGWYRQAAGKERVLVAAISTSGGSTYYADSVKGRFTISRDNANNTVYLQMNSVKQEDTAFYYCAKEFKYWGYPYEYWGQGTLVTVSS” was “low polyreactivity”. In the case of “QVQLVESGGGLVQAGGSLRLSCAASGSIFNSNVMGWYRQAPGKERELVAAISTSGGSTHYADSVKGRFTISRDNAKNTVYLQMNSLKPEDTAVYYCAARVSSYSQLYYYWGQGTQVTVSS”, the “polyreactivity (PSR sort gate)” value is “high polyreactivity”. As for “QVQLVESGGGLVQAGGSLRLSCAASGSTFAYNDMGWYRQAPGKERELVADIRSGGNTNYADSVKGRFTISRDNAKNTVYLQMNSLKPEDTAFYYCNVKYFVVAGYRYVKFDYWGQGTQVTVSS”, the “polyreactivity (PSR sort gate)” value was “low polyreactivity”. Take “QVQRVESGGGLVQAGGSLRLSCAASGSIFFDGNAMGWYRQAPGQERELVAAISVSGGSTYYADSVKGRFTISRDNAKNTVYLQMNSLKPEDTAVYYCAKYPSKSYVPGDYWGQGTQVTVSS”: the “polyreactivity (PSR sort gate)” value is reported as “low polyreactivity”.

On to “QVQLVESGGGLVQAGGSLRLSCAASGFTFYYYTMGWYRQAPGKQRELVAAITWRGGSTNYADSVKGRFTISRDNAKNTVFLQMNSLKPEDTAVYYCAAVSYWFWPGMDYWGQGTQVTVSS”, for which the “polyreactivity (PSR sort gate)” value is “low polyreactivity”. For “QVQLVESGGGLVQAGGSLRLSCAASGRTFYYYAMGWYRQAPGKEREFVAAIRFSGGNTYYADSVKGRFTISRDNAKNTVYLQMNSLKPEDTAVYYCAARRLLYKYWTGGPYDYWGQGTQVTVSS”, the “polyreactivity (PSR sort gate)” value was “high polyreactivity”. In the case of “QVQLVESGGGLVQAGGSLRLSCAASGSISQTYAMGWYRQAPGKERELVAAISSSGASTYYADSVKGRFTISRDNAKNTVYLQMNCLKPEDTAVYYCAALGRYRYIYNYWGQGTQVTVSS”, the “polyreactivity (PSR sort gate)” value is recorded as “high polyreactivity”.

For “QVQLVESGGGLVQAGGSLRLSCAASGITFSRYAMGWYRQAPGKERELVAAISSGGSTYYADSVKGRFTISRDNAKNPVYLQMNSLKPEDTAVYYCAAVILSRWASYREYYYWGQGTQVTGSS”, the “polyreactivity (PSR sort gate)” value is given as “high polyreactivity”. Regarding “QVQLVESGGGLVQAGGSLRLSCAASGLIFYGYVMGWYRQAPGKERELVAGISRNSGSTYYADSVKGRFTISRDNAKTTVYLQMNSLKPEDTAVYYCAKAYYRRYAAPGYDYWGQGTQVTVSS”, the “polyreactivity (PSR sort gate)” value is “low polyreactivity”. As for “QVQLVESGGGLVQAGGSLRLSCAASGRTFDRNARGWYRQAPGKEREVVARITIDGSTNYADSVKGRFTISRDNAKNTVYLQMNSLKPEETAVYYCATDQLSLSWYFRPYDYCYWGQVTQVTVSS”, the “polyreactivity (PSR sort gate)” value is recorded as “high polyreactivity”.

With “QVQLVESGGGLVQAGGSLRLSCAASGNIFHDNAMGWYREAPGKERELVAAISDSGGSTYYADSVKGRFTISRDNAKNTVYFQMNSLQPEDTAVYYCDSGRTYYAPYQWWYDYWGQGTQVTVSS”, the “polyreactivity (PSR sort gate)” value was “high polyreactivity”.

For the origin of these results see the nanobody polyreactivity screen of Harvey et al. (2022).
